In publication PMC10266016 (Proceedings of the National Academy of Sciences of the …, 2023):
Positions count from the first letter of the chain named.

Legend:
Assay in all cases: ITC
[1] = molecular target: Human Scribble PDZ1 domain (human) (UniProt Q14160)
[2] = molecular target: Human Scribble PDZ3 domain (human) (UniProt Q14160)
[3] = molecular target: T1, Human Scribble PDZ3 domain (human, UniProt Q14160 1002-1092)
T1 sequence: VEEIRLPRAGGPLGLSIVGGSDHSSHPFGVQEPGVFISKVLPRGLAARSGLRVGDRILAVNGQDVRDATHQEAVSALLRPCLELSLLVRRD

[4] = molecular target: Scribble PDZ1 R762A (human, UniProt Q14160 700-816, R762A)
Sequence of Scribble PDZ1 R762A (Q14160 700-816 R762A): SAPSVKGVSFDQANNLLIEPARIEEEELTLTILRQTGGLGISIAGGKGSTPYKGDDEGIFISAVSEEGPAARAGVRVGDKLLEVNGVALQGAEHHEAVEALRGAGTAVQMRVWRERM

[5] = molecular target: T2, Scribble PDZ3 K1040A (human, UniProt Q14160 1002-1092, K1040A)
T2 sequence: T1 sequence with K39A

[6] = molecular target: Human Scribble PDZ1 domain (human, UniProt Q14160 700-816)
Sequence of Human Scribble PDZ1 domain (Q14160 700-816): as the sequence (Q14160 700-816 R762A) above, with A63R counted along it

Sequence of Human Scribble PDZ1 domain (human) (Q14160 700-816): as the sequence (Q14160 700-816 R762A) above, with A63R counted along it

Row | Molecule | Kd [1] [µM] | Kd [2] [µM] | Kd [3] [µM] | Kd [4] [µM] | Kd [5] [µM] | Kd [6] [µM]
1 | PTHR PBM peptide, 4-mer | 57 | 17.1 | – | – | – | –
2 | QEEWETVM [PTHR PBM peptide, 8-mer] | – | – | 13.4 | 39.9 | 23.5 | 31.7
3 | DEEASGPERPPALLQEEWETVM [PTHR PBM peptide, 22-mer] | – | – | 19.2 | – | – | 11.5
